Measurements: article PMC9727766 (bioRxiv, 2022)

B1: fp.006 monoclonal antibody (IgG) (antibody, V domains shown)
VH: EVQLVESGGGVVQPGGSLRLSCAASGFNFNNYALHWVRQAPGKGLEWVAIISYEARNKKYGVSVMGRFSISRDNSKSIMYLEMNSLRVEDTGVYYCARDLFLSDYDRSGYDPTRGGFDHWGQGTLVTVSS
VL: EIVMTQSPATLSVSPGERATLSCRASQSVSSSLAWYQHRFGQAPRLLISGASTRATGIPGRFSGSGSGTEFTLTISSLQSEDVAVYYCQQYGDWPLVTFGGGTKVEIK
B2: sd1.040 monoclonal antibody (IgG) (antibody, V domains shown)
VH: QVQLVQSGAEVKKPGASVKVSCKASGYTFTSFYIHWVRQAPGQGLEWMGIIDPSGGSTSYPQKFQGRVTMTRDTSTSTVYMDLSSLRSEDTAVYYCTRDGSAGDNSWFDPWGQGTLVTVSS
VL: not shown
B3: fp.006 Fab (Fab, V domains shown)
VH: EVQLVESGGGVVQPGGSLRLSCAASGFNFNNYALHWVRQAPGKGLEWVAIISYEARNKKYGVSVMGRFSISRDNSKSIMYLEMNSLRVEDTGVYYCARDLFLSDYDRSGYDPTRGGFDHWGQGTLVTVSS
VL: EIVMTQSPATLSVSPGERATLSCRASQSVSSSLAWYQHRFGQAPRLLISGASTRATGIPGRFSGSGSGTEFTLTISSLQSEDVAVYYCQQYGDWPLVTFGGGTKVEIK

Columns and labels:
[1] = biological target: T1, SARS-CoV-2 S protein, C-terminally truncated (pSARS-CoV2-S_trunc), ancestral, on 293T cells (SARS-CoV-2 ancestral (Wuhan), UniProt P0DTC2); assay: flow cytometry on cells
[2] = biological target: T1, SARS-CoV-2 S protein, C-terminally …; assay: cell-based or functional assay
[3] = biological target: SARS-CoV-2 fusion peptide (FP) peptide 812…831 (SARS-CoV-2 ancestral, Biotin-Ahx at the N-terminus; C-terminal amidation); assay: crystal structure

Binder	fold increase of binding with soluble ACE2 [1] [fold]	IC50 of neutralisation of SARS-CoV-2 pseudovirus (ancestral) [2] [µg/mL]	binding result [3]
B1	5.8	0.737	
B2		0.245	
B3			binds
